Laboratory results from article PMC5959942, “Targeting G protein-coupled receptor signaling at the G protein level with a selective nanobody inhibitor” (Nature Communications, 2018).
Positions count from the first letter of the chain named.

Key:
[1] = target: T1, bovine Gβ1γ1 dimer (β1γ1 subunits of the visual G protein Gt, transducin) (bovine, UniProt P62871;P02698)
[2] = target: T2, mouse Gβ1 subtype from brain (mouse (endogenous in C57BL/6J brain), UniProt P62874); test: affinity purification with mass spectrometry; cholate-solubilized, DEAE-purified C57BL/6J mouse brain extract with a two molar excess of His-tagged Nb5, Ni2+-NTA then Talon resin; Gβ gel band digested in gel, LC-MS/MS; conditions: one partner purified
T2 construct: G protein beta subunit subtype 1, mouse brain; Extracted as Gβγ; the Gγ partner is not identified; source: endogenous, C57BL/6J mouse brain membranes, cholate-solubilized and partially purified (DEAE Sepharose)

[3] = target: T3, mouse Gβ2 subtype from brain (mouse (endogenous in C57BL/6J brain), UniProt P62880); test: as above; conditions: one partner purified
T3 construct: G protein beta subunit subtype 2, mouse brain; Extracted as Gβγ; the Gγ partner is not identified; source: endogenous, C57BL/6J mouse brain membranes, cholate-solubilized and partially purified (DEAE Sepharose)

[4] = target: T4, mouse Gβ4 subtype from brain (mouse (endogenous in C57BL/6J brain), UniProt P29387); test: as above; conditions: one partner purified
T4 construct: G protein beta subunit subtype 4, mouse brain; Extracted as Gβγ; the Gγ partner is not identified; source: endogenous, C57BL/6J mouse brain membranes, cholate-solubilized and partially purified (DEAE Sepharose)

[5] = target: T5, mouse Gβ3 subtype from brain (mouse (endogenous in C57BL/6J brain), UniProt Q61011); test: as above; conditions: one partner purified
T5 construct: G protein beta subunit subtype 3, mouse brain; Extracted as Gβγ; the Gγ partner is not identified; source: endogenous, C57BL/6J mouse brain membranes, cholate-solubilized and partially purified (DEAE Sepharose)

[6] = target: T1, bovine Gβ1γ1 dimer (β1γ1 subunits of …); test: SPR; Biacore T100, 25 °C; Nb5 amine-coupled on CM5 (400-500 RU); Gβ1γ1 0.6-312 nM in 10 mM HEPES pH 7.5, 150 mM NaCl, 1 mM TCEP, 0.1% Tween-20; single-cycle kinetics, 1:1 Langmuir fit; conditions: both partners purified
[7] = target: T1, bovine Gβ1γ1 dimer (β1γ1 subunits of …); test: SPR; same set-up as a5; affinity based (equilibrium) analysis; conditions: both partners purified
[8] = target: T6, Venus-Gβ3γ2 (Venus 156-239-Gβ3 + Venus 1-155-Gγ2) (UniProt P16520;P59768); test: FRET or BRET; BRET between Venus-Gβγ and masGRK3ct-Nluc-HA in living HEK293T/17 cells, room temperature; GαoA, Nb5-Flag or Nb17-Flag co-transfected as competitor (plasmid ratio GαoA:Gβ:Gγ2:masGRK3ct:nanobody 2:1:1:1:12); conditions: partners not purified
T6 construct: G protein beta subunit subtype 3, GenBank M31328; G protein gamma subunit 2; also called Venus-Gβγ; Gβ3 + Gγ2 pair; source: HEK293T/17, transfected, in living cells; not shown: Venus 156-239 (with GGSGGG linker), N-terminal, kept

[9] = target: T7, Venus-Gβ4γ2 (Venus 156-239-Gβ4 + Venus 1-155-Gγ2) (UniProt Q9HAV0;P59768); test: as above; conditions: partners not purified
T7 construct: G protein beta subunit subtype 4, GenBank AF300648; G protein gamma subunit 2; also called Venus-Gβγ; Gβ4 + Gγ2 pair; source: HEK293T/17, transfected, in living cells; not shown: Venus 156-239 (with GGSGGG linker), N-terminal, kept

[10] = target: T8, Venus-Gβ1γ2 (Venus 156-239-Gβ1 + Venus 1-155-Gγ2) (UniProt P62873;P59768); test: as above; conditions: partners not purified
T8 construct: G protein beta subunit subtype 1; G protein gamma subunit 2; also called Venus-Gβγ; source: HEK293T/17, transfected, in living cells

[11] = target: T9, Venus-Gβ2γ2 (Venus 156-239-Gβ2 + Venus 1-155-Gγ2) (UniProt P62879;P59768); test: as above; conditions: partners not purified
T9 construct: G protein beta subunit subtype 2, GenBank AF501883; G protein gamma subunit 2; also called Venus-Gβγ; Gβ2 + Gγ2 pair; source: HEK293T/17, transfected, in living cells; not shown: Venus 156-239 (with GGSGGG linker), N-terminal, kept

B1: Nb6 (VHH)
VHH: QVQLVESGGGLVQAGGSLRLSCAASGSIFSINAMNWYRQAPGKRRELVAAITNGGSTNYADSVKGRFTISRDNAKNTVYLQMNSLKPEDTAVYYCNVGRSRGYWGQGTQVTVSS
B1: binds [1].

B2: Nb5 (llama-derived nanobody against the Gβ1γ1 dimer), C-terminal His-tag (VHH)
VHH: B1 VHH with N35G, R44Q, N53R, S56R, I69L
notes: Selected from a library in the phage display vector pMESy4; not shown: His6, C-terminal, kept
B2: binds [2]; binds [3]; binds [4]. For the same binder, the binding result [5] was “binds”, the Kd [6] was 43 nM and the koff [6] was 0.019 s⁻¹. For the same binder, the kon [6] was 440000 M⁻¹ s⁻¹ and the Kd [7] was 53 nM.

B3: Nb5-Flag (Nb5 with the 6 × His-tag replaced by the FLAG-tag) (VHH)
VHH: B1 VHH with N35G, R44Q, N53R, S56R, I69L
notes: source: HEK293T/17, transfected, in living cells; CHO-APJ cells, transiently transfected (pcDNA3.1(+)); not shown: FLAG, C-terminal, kept
B3: binds [8]; binds [9]; binds [10]. B3: binds [11].

B4: Nb7 (VHH)
VHH: B1 VHH with G16E, S27N, M34T, R44Q, A50G, N53T, G54R
B4: binds [1].
